This note sets out measurements from paper PMC7417313.

Common to all, as to test: SPR; His-tagged rH fragment held on a Ni-charged NTA chip (BIAcore X or 3000; 500-1,000 RU, reloaded for each injection), C3 protein injected in HBS-P (10 mM HEPES pH 7.4, 150 mM NaCl, 0.005% P20) at 5 μL/min, 25°C; reference cell with nickel only; equilibrium levels fitted to a one-site equation
Assay [1] concerns the target recombinant Factor H fragment rH 18-20 (human).
In assay [2] the target is full-length recombinant Factor H (human) (UniProt P08603).
The target of assay [3] is recombinant Factor H fragment rH 16-20 (human).
The target of assay [4] is recombinant Factor H fragment rH 1-7 (human).
Assay [5] deals with recombinant Factor H fragment rH 17-20 (human).
The target in assay [6] is recombinant Factor H fragment rH 19-20 (human).
Assay [7] has as its target recombinant Factor H fragment rH 1-8 (human).
The target in assay [8] is recombinant Factor H fragment rH 1-6 (human).

Chain of C3d (P01024 1002-1303): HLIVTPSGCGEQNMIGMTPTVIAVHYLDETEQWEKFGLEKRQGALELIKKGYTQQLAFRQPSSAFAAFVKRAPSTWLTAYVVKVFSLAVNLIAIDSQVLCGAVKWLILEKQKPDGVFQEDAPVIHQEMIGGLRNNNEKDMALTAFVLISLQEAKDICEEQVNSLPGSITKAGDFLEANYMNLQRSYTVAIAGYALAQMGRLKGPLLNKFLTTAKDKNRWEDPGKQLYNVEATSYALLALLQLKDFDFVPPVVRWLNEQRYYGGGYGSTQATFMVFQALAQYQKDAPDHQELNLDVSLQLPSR
Chain of full-length recombinant Factor H (human) (P08603 19-1231): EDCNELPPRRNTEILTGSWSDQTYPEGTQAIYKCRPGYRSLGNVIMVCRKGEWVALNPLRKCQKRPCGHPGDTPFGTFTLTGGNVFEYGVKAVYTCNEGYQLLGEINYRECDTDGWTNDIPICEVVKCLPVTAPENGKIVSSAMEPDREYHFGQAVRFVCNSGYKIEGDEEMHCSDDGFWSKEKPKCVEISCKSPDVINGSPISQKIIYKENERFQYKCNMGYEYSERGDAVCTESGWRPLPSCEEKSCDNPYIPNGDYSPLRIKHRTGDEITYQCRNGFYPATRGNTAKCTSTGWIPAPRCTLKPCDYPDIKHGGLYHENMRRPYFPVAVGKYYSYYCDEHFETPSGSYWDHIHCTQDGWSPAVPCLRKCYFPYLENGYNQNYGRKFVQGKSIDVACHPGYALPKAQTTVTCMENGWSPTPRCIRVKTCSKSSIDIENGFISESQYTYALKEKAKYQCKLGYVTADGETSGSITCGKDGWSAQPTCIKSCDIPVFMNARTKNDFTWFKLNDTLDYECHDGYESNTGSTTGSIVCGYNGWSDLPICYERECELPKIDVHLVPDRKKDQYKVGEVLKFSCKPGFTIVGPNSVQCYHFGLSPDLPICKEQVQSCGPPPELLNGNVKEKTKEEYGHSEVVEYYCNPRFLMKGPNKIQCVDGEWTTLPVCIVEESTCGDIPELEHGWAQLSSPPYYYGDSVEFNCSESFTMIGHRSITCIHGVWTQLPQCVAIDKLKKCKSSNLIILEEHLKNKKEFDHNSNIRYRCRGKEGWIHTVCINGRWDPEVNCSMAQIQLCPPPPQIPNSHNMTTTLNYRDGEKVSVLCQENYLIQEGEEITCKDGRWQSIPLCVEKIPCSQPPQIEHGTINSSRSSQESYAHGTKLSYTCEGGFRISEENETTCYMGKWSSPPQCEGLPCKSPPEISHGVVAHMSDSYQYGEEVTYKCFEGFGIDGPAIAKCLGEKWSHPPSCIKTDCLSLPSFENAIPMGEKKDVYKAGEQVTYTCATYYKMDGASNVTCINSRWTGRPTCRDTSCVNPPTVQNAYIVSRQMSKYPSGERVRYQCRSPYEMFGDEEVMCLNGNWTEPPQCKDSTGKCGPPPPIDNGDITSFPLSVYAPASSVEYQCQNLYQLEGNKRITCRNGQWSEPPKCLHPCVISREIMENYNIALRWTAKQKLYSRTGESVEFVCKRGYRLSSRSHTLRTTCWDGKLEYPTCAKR

One may read the Kd as the equilibrium constant for the complex coming apart. On to C3b (domain or fragment), for which the Kd in assay [1] turned out to be 1900 nM; in assay [2], 95 nM; in assay [3], 2400 nM; in assay [4] it was 80 nM; in assay [5], 2100 nM; in assay [6], 1700 nM. The Kd amounted to 150 nM in assay [7] and 80 nM in assay [8].
Regarding “C3d (from UniProt P01024 1002-1303) (domain or fragment)”, the Kd in assay [6] was determined as 1900 nM.
For the substance “complement component C3 (native C3) (natural protein)”, the Kd in assay [8] is 400 nM.
With iC3b (domain or fragment), the Kd in assay [6] came out at 2800 nM; in assay [8] it was 5000 nM.
